This is an account of results in patent US7638284B2, “Immunoglobulin A inducing protein and uses therefor” (The Curators of the University of Missouri, priority 2000, dated 2009).

The subject of the assay is IGIP transcripts. Put plainly: RT-PCR of IGIP transcripts in stimulated monocyte derived dendritic cells. The following applies: human monocyte derived dendritic cells. In kind it is cell-based. As for the experimental part:
PBMCs were labeled with anti-CD14 microbeads at 4° C. for 45 minutes, washed three times in sorting buffer. Pure CD14+blood monocytes were then separated by AutoMACS, and cultured at 37° C. for 6 days in cRPMI with 1400 U/ml Leukine (rhGM-CSF) and 10 ng/ml rhIL-4. Non-adherent cells were collected at day six, and purity of dendritic cells was determined by flow cytometry.
Enriched dendritic cell cultures were stimulated with rhCD40L, Pam3CSK, Poly I:C, LPS, CpG DNA, or PMA and Ionomycin for 0, 12, 18, 24, 48, and 72 hours. Total RNA was extracted from harvested cells and treated with DNase to remove any potential contaminating DNA. IGIP was amplified by RT-PCR.
Human dendritic cells (DC) were derived from peripheral blood monocytes by culturing in GM-CSF and IL-4 for 6-7 days. IGIP transcripts were detected by RT-PCR in total RNA from approximately 10^6 monocyte derived DC (mDC) following either Toll-like receptor (TLR) binding or CD40 ligation.

B1: CD40L: rhCD40L used to stimulate dendritic cell cultures (protein, UniProt P29965 113-261, looked up)
CD40 ligand, soluble form: MQKGDQNPQIAAHVISEASSKTTSVLQWAEKGYYTMSNNLVTLENGKQLTVKRQGLYYIYAQVTFCSNREASSQAPFIASLCLKSPGRFERILLRAANTHSSAKPCGQQSIHLGGVFELQPGASVFVNVTDPSQVSHGTGFTSFGLLKL
As to B1, the “loss of IGIP transcripts post stimulation” value is on record as “no longer detectable after 48 hours”, the “time after stimulation at which IGIP was detectable” value is on record as “approximately 12 hours” and the “time of peak IGIP expression” value amounted to 24 h.
